Data reported in publication PMC3021753.

T1: YeeV fused to the GAL4 DNA binding domain (pGBD-C1) (E. coli), P64524
T1 chain: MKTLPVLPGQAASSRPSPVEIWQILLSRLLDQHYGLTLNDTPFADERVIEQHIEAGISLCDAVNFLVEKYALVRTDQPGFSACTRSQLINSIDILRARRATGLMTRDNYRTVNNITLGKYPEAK

B1: MreB fused to the GAL4 activation domain, P0A9X4 1-347 (natural protein)
chain: MLKKFRGMFSNDLSIDLGTANTLIYVKGQGIVLNEPSVVAIRQDRAGSPKSVAAVGHDAKQMLGRTPGNIAAIRPMKDGVIADFFVTEKMLQHFIKQVHSNSFMRPSPRVLVCVPVGATQVERRAIRESAQGAGAREVFLIEEPMAAAIGAGLPVSEATGSMVVDIGGGTTEVAVISLNGVVYSSSVRIGGDRFDEAIINYVRRNYGSLIGEATAERIKHEIGSAYPGDEVREIEVRGRNLAEGVPRGFTLNSNEILEALQEPLTGIVSAVMVALEQCPPELASDISERGMVLTGGGALLRNLDRLLMEETGIPVVVAEDPLTCVARGGGKALEMIDMHGGDLFSEE
B2: FtsZ fused to the GAL4 activation domain (pGAD-C1), P0A9A6 1-383 (natural protein)
chain: MFEPMELTNDAVIKVIGVGGGGGNAVEHMVRERIEGVEFFAVNTDAQALRKTAVGQTIQIGSGITKGLGAGANPEVGRNAADEDRDALRAALEGADMVFIAAGMGGGTGTGAAPVVAEVAKDLGILTVAVVTKPFNFEGKKRMAFAEQGITELSKHVDSLITIPNDKLLKVLGRGISLLDAFGAANDVLKGAVQGIAELITRPGLMNVDFADVRTVMSEMGYAMMGSGVASGEDRAEEAAEMAISSPLLEDIDLSGARGVLVNITAGFDLRLDEFETVGNTIRAFASDNATVVIGTSLDPDMNDELRVTVVATGIGMDKRPEITLVTNKQVQQPVMDRYQQHGMAPLTQEQKPVAKVVNDNAPQTAKEPDYLDIPAFLRKQAD

Tests used:
[1] = target: T1, YeeV fused to the GAL4 DNA binding …; assay: two-hybrid; details: remark: other sources report otherwise
[2] = target: MreB fused to the GAL4 DNA binding domain (pGBD-C1) (E. coli), P0A9X4; assay: two-hybrid; details: remark: other sources report otherwise

Row | Binder | β-Galactosidase activity (Miller Units) [1] [Miller Units] | β-Galactosidase activity (Miller Units) [2] [Miller Units]
1 | B1 | 98 | –
2 | B2 | – | 345
